Reference: publication PMC4120239 (Nature communications, 2014)
Residue numbers refer to the chain shown, from its start.

B1: F779 scFv, somatically mutated (scFv, V domains shown)
VH: QVQLVQSGADVKKPGASVKVSCTASGNTFTTYSLHWVRQAPGQGLEWMGVIDPSGGSTSYAQKFQGRLTMTRDTSTSTFYMELSSLRSEDTAVYYCARSIESISGRTLGYWGQGTLVTVSS
VL: DIVMTQTPLSSPVTLGQPASISCRSSETLVHSDGNTYLSWLQQRPGQPPRLLIYKISNRFSGVPDRFSGSGAGTDFTLKISRVEAEDVGVYYCLQATEFPYTFGQGTKLEIK
B2: 3.2 scFv mAb, somatically mutated (scFv, V domains shown)
VH: QVQLVQSGAEVKKPGASVKVSCKASGYTFTSYYMHWVRQAPGHGLEWMGIINPSGGIANYAQKFQGRVTMTRDTSTSTVYMDLSSLTSEDTAVYYCARDLGGFDFDYWGQGTLVTVSS
VL: ELALTQPPSVSGSPGQSVTISCTGTSSDIGRYNFVSWYQQHPGKAPKLMIYEIYKRPSGVPDRFSGSRSGNTASLTVSGLQAEDEADYYCSSYVGNNDLVFGGGTQLTVL
B3: PVE4-8 scFv mAb, somatically mutated (scFv, V domains shown)
VH: QVQLVQSWAEVKKPGASVKFSCKASGYTFTAYYMHWVRQAPGQGLEWMGIINPSGGIATYAEKFQGRVTMTRDTSTTTVYMELSSLRSQDAAVYYCARDRQGFDLDVWGQGTTVTVSS
VL: ELVLTQPPSASGSPGQSVTISCTGTSSDVGGYNYVSWYQQHPGKAPKLMIYEVNKRPSGVPDRFSGSRSGNTASLTVSGLQAEDEADYYCSSYAGSNNLVFGGGTKVTVL
B4: 4.2 scFv mAb, somatically mutated (scFv, V domains shown)
VH: EVQLVQSGAEVKKPGASLKVSCQASGYIFTSHYIHWVRQAPGQGLEWMGIINPSGGKTTFAQKFQGRVTMTRDTSTRTVYMEMSGLRSEDTAVYYCARDQSLGMDVWGQGTTVIVSS
VL: B3 VL with V3A, A10V, V18I, N54S, P61S, D62N, R68K, V77I, L99W, V107L

Molecular target: Dsg3-Fc recombinant fusion protein (Homo sapiens, UniProt P32926)
Sequence (P32926 50-615): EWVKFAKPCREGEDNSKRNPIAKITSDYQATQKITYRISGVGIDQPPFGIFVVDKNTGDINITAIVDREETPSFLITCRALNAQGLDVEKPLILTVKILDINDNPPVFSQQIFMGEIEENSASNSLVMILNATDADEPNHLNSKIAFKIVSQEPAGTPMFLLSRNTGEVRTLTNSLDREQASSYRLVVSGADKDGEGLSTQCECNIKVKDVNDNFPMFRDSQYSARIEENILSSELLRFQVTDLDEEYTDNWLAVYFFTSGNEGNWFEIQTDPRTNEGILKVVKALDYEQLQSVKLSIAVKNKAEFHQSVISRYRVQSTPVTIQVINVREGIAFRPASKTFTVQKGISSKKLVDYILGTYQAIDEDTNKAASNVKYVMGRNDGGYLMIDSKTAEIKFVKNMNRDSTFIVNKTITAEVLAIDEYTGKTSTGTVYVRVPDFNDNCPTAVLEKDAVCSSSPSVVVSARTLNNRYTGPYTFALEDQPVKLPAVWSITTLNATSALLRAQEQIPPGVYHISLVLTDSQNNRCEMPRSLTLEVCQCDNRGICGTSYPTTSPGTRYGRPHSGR
Assay: SPR

| Binder | Kd [nM] | koff [s⁻¹] | kon [M⁻¹ s⁻¹] |
| --- | --- | --- | --- |
| B1 | 1.77 | 0.000548 | 310000 |
| B2 | 1.42 | 0.00231 | 1.62e+06 |
| B3 | 2.39 | 0.00123 | 515000 |
| B4 | 0.182 | 0.000712 | 3.91e+06 |

Molecular target: desmoglein 3 (Dsg3) on Dsg3 ELISA plates (Homo sapiens, UniProt P32926)
Sequence (P32926 50-615): as above
Assay: ELISA

| Binder | binding result |
| --- | --- |
| B1 | binds |
